Results taken from PMC3465527.

Assays:
[1] = target: T1, Mss116p D2 (with CTE) (Saccharomyces cerevisiae? (paper: yeast), UniProt P15424 342-597); experiment: X-ray crystallography
T1 sequence: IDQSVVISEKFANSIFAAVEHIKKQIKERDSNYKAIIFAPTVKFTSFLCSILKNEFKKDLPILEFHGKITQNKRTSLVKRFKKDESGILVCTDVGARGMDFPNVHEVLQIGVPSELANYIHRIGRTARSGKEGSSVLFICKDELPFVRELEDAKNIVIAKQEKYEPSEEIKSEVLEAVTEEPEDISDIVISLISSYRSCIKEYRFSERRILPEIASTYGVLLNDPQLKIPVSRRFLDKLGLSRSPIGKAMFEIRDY

[2] = target: T2, Mss116p MBP-D1 (Saccharomyces cerevisiae? (paper: yeast), UniProt P15424 88-330); experiment: EMSA
T2 sequence: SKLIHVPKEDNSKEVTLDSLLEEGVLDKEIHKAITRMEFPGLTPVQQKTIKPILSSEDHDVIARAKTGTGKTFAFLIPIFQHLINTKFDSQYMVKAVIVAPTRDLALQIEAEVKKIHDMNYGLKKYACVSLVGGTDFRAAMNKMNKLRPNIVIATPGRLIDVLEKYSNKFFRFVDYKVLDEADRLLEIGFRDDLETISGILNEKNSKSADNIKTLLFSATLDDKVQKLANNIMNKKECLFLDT

B1: chimeric RNA-DNA duplex 14-bp (mixed)
? 1: GGGCGGGCCCGCCC
? 2: GGGCGGGCCCGCCC
modifications: each strand rGrGrGrCrGrGrGdCdCdCdGdCdCdC: nt 1-7 RNA, nt 8-14 DNA
binding result [1]: binds

B2: FAM-dsRNA 14-bp (dsRNA)
RNA 1: GGGCGGGCCCGCCC
RNA 2: GGGCGGGCCCGCCC
binding result [2]: no binding
